The values that follow come from article PMC11950179 (Nature Communications, 2025).

This series deals with the molecule itself. The series can be described thus: cryo-EM structure.

B1: human phosphorylase kinase β subunit (PHKB), phosphorylated (natural protein, UniProt Q93100 1-1093, looked up)
chain: MAGAAGLTAEVSWKVLERRARTKRSGSVYEPLKSINLPRPDNETLWDKLDHYYRIVKSTLLLYQSPTTGLFPTKTCGGDQKAKIQDSLYCAAGAWALALAYRRIDDDKGRTHELEHSAIKCMRGILYCYMRQADKVQQFKQDPRPTTCLHSVFNVHTGDELLSYEEYGHLQINAVSLYLLYLVEMISSGLQIIYNTDEVSFIQNLVFCVERVYRVPDFGVWERGSKYNNGSTELHSSSVGLAKAALEAINGFNLFGNQGCSWSVIFVDLDAHNRNRQTLCSLLPRESRSHNTDAALLPCISYPAFALDDEVLFSQTLDKVVRKLKGKYGFKRFLRDGYRTSLEDPNRCYYKPAEIKLFDGIECEFPIFFLYMMIDGVFRGNPKQVQEYQDLLTPVLHHTTEGYPVVPKYYYVPADFVEYEKNNPGSQKRFPSNCGRDGKLFLWGQALYIIAKLLADELISPKDIDPVQRYVPLKDQRNVSMRFSNQGPLENDLVVHVALIAESQRLQVFLNTYGIQTQTPQQVEPIQIWPQQELVKAYLQLGINEKLGLSGRPDRPIGCLGTSKIYRILGKTVVCYPIIFDLSDFYMSQDVFLLIDDIKNALQFIKQYWKMHGRPLFLVLIREDNIRGSRFNPILDMLAALKKGIIGGVKVHVDRLQTLISGAVVEQLDFLRISDTEELPEFKSFEELEPPKHSKVKRQSSTPSAPELGQQPDVNISEWKDKPTHEILQKLNDCSCLASQAILLGILLKREGPNFITKEGTVSDHIERVYRRAGSQKLWLAVRYGAAFTQKFSSSIAPHITTFLVHGKQVTLGAFGHEEEVISNPLSPRVIQNIIYYKCNTHDEREAVIQQELVIHIGWIISNNPELFSGMLKIRIGWIIHAMEYELQIRGGDKPALDLYQLSPSEVKQLLLDILQPQQNGRCWLNRRQIDGSLNRTPTGFYDRVWQILERTPNGIIVAGKHLPQQPTLSDMTMYEMNFSLLVEDTLGNIDQPQYRQIVVELLMVVSIVLERNPELEFQDKVDLDRLVKEAFNEFQKDQSRLKEIEKQDDMTSFYNTPPLGKRGTCSYLTKAVMNLLLEGEVKPNNDDPCLIS
modifications: phosphorylated by PKAc; phosphoserine at Ser12, Ser27 and Ser701
Regarding B1, the binding result was “binds”.
